From article PMC4258549
Like-named read-outs stand apart in the source and are kept apart here.

Experiments:
Assay in all cases: AlphaScreen or HTRF
[1] = molecular target: biotinylated C4b (human)
[2] = molecular target: biotinylated C4b (human); remark: listed apart in the source
[3] = molecular target: myc-tagged Eap (Staphylococcus aureus) (UniProt Q99QS1)
myc-tagged Eap (Staphylococcus aureus), sequence (Q99QS1 31-476): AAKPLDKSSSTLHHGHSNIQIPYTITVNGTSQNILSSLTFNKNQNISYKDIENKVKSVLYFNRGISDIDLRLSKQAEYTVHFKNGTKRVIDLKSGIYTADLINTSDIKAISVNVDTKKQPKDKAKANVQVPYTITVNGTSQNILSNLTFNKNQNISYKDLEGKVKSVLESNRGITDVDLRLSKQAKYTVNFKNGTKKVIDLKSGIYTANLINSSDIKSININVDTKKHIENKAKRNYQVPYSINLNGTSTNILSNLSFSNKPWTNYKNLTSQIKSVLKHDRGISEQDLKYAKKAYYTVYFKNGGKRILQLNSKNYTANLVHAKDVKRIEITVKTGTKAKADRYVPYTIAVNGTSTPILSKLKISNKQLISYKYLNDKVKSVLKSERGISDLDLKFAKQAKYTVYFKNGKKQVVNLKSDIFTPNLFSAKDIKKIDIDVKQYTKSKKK

C4b-binding protein, sequence (P04003 49-597): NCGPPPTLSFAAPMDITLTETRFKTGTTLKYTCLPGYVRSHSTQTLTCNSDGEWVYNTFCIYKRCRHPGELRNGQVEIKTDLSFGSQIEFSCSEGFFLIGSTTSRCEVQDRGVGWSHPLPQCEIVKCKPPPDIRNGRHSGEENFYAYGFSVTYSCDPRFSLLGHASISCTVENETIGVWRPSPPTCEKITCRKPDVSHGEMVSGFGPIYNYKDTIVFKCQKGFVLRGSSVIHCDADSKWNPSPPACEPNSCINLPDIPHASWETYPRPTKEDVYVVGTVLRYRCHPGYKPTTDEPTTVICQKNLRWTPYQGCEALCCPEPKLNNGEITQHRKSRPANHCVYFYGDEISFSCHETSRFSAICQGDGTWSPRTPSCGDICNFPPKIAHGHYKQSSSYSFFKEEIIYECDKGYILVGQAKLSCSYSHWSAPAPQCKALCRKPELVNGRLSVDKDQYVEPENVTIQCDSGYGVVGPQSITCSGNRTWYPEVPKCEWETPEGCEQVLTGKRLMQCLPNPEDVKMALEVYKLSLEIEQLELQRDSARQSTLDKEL
C4b-binding protein, sequence (P20851 18-252): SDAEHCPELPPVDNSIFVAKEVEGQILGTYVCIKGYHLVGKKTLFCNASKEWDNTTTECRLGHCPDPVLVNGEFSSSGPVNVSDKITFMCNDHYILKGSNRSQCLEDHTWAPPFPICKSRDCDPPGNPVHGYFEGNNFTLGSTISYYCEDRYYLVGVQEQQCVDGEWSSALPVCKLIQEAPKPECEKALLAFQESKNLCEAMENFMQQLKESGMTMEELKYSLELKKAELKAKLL

Substance | IC50 [1] [nM] | IC50 [2] [nM] | Kd [3] [nM]
C2b fragment of complement component C2, recombinant (domain or fragment) | 3500 |  | 
C4b-binding protein (from UniProt P04003 49-597; P20851 18-252) (complex) | 21 | 13 | 
C4c (complex) |  |  | 138
native complement component C4 (complex) |  |  | 45
